Source: patent US20120130045A1, “BIOMOLECULE-POLYMER CONJUGATES AND METHODS OF MAKING SAME” (ABLITECH, INC., priority 2009, published 2012)

Key:
DNase I = DNase I digestion monitored by TLC; type: in vitro ADME; conditions: for DNase I digestion after six hours (TLC, FIG. 6): model oligonucleotide
Source text: Nucleases and proteases are common and result in extremely short half-life for biomolecules not protected from the in vivo environment. In addition, carboxylesterases (CES) are known to be present in many cancerous tumor cells. Therefore, the ability of the biomolecule-polymer conjugates of the disclosure to withstand degradation in the presence of fetal calf serum (FCS) and either DNase I, or 51 nuclease is investigated, as well as the ability of carboxylesterase 1 to degrade the biomolecule-polymer conjugates and release the biomolecule.
Concentrations of treatments were as follows: FCS (30%), DNase I (30 units), 51 nuclease (10 units). Digestions were conducted at 37° C. and monitored by either thin layer chromatography or gel electrophoresis.

[1] = system: bacterial 16S ribosomal RNA gene; assay: PCR amplification with 8F primer conjugates, gel electrophoresis; type: biochemical
Source text: The retention and recovery of the original functionality of the biomolecule is a characteristic of the conjugates of the disclosure. In order to test the ability of an oligonucleotide-polymer conjugate of the disclosure to functionally bind its complementary sequence, PCR primers were utilized. The universal bacterial primers 8F (5′-[…]-3′, SEQ ID NO:2) and 1392R (5′-ACGGGCGGTGTGTACA-3′, SEQ ID NO:3) were used to amplify a portion of the bacterial 16S ribosomal RNA gene. The 8F primer conjugated to MPEG-550 networked with MPEG-550 were prepared according to Examples 7 and 9 above, and subjected to DNase I degradation studies.
The MPEG550 conjugate and the MPEG550-networked-conjugate were then treated with NH4OH to release the PCR primers from the MPEG550 via chemical degradation and PCR amplification was then performed. Each 50-μl PCR mixture contained 1 μl template DNA (either E. coli. or an environmental isolate belonging to the genus Streptomonospora), 2 U Taq DNA polymerase (Eppendorf), 1×Taq buffer, […] Mg(OAc)2, 1×Taq Master PCR Enhancer, each deoxynucleoside triphosphate at a concentration of 20 μM, and each primer at a concentration of 0.4 μM. The PCR conditions were 85° C. for 5 min, 30 cycles of 94° C. for 45 s, 55° C. for 1 min, and 72° C. for 90 s, with a final 7 min extension at 72° C.

Row | Substance | DNase I digestion after one hour (TLC, FIG. 9) (DNase I; 8F PCR primer conjugates, DNase I, one hour) | PCR amplification product after NH4OH treatment (1% agarose gel) ([1]; conjugate cleaved in NH4OH for 15 minutes and 18 hours before PCR) | PCR amplification product (1% agarose gel) ([1]; each primer 0.4 μM, with 1392R primer, 30 cycles) | DNase I digestion after one hour (TLC, FIG. 5) (DNase I; DNase I 30 units, 37° C., one hour, model oligonucleotide of Example 1) | DNase I digestion after six hours (TLC, FIG. 6) (DNase I; DNase I 30 units, 37° C.) | DNase I digestion after 3 hours following NH4OH treatment (TLC, FIG. 7) (DNase I; conjugate treated with NH4OH to cleave the L-X bond, then DNase I, 3 hours)
1 | MPEG550 conjugate: universal bacterial 8F PCR primer (SEQ ID NO:2) conjugated to MPEG-550 according to Example 7 (DNA AGAGTTTGATCCTGGCTCAG; primer conjugated to MPEG-550, position not given here) | resistant to nuclease degradation | yielded the appropriate size amplification product | functional and yielded the appropriate size amplification product | – | – | –
2 | oligonucleotide-MPEG conjugate: model oligonucleotide of Example 1 (SEQ ID NO:1) conjugated to MPEG550 (methoxy-terminated PEG, MW 550) (TTTTATTTTATTTTATTTTA; DNA, backbone not given here; conjugated to MPEG550 via propargyl chloroformate chemistry, further chemistry not fully specified) | – | – | – | resistant to DNase I treatment | remained intact | allowed for degradation by DNase I
3 | 5′-TTTTATTTTATTTTATTTTA-3′ (model oligonucleotide, sugar chemistry not given here, further chemistry not given here) [native model oligonucleotide, reference compound] | – | – | – | – | completely digested | –
